In US20210145935A1:

How the values were obtained:
[1] = molecular target: H3N2 pseudotyped lentiviral particles (H3 from A/Denmark/70/03, N2 from A/Texas/50/2012) (influenza A virus H3N2 A/Denmark/70/03; influenza A virus H3N2 A/Texas/50/2012); assay: cell-based or functional assay
[2] = molecular target: H1N1 pseudotyped lentiviral particles (H1 and N1 from swine H1N1 A/California/04/09) (influenza A virus H1N1 A/California/04/09); assay: cell-based or functional assay

B1: human complement factor H purified from human plasma, P08603 19-1231 (protein)
chain: EDCNELPPRRNTEILTGSWSDQTYPEGTQAIYKCRPGYRSLGNVIMVCRKGEWVALNPLRKCQKRPCGHPGDTPFGTFTLTGGNVFEYGVKAVYTCNEGYQLLGEINYRECDTDGWTNDIPICEVVKCLPVTAPENGKIVSSAMEPDREYHFGQAVRFVCNSGYKIEGDEEMHCSDDGFWSKEKPKCVEISCKSPDVINGSPISQKIIYKENERFQYKCNMGYEYSERGDAVCTESGWRPLPSCEEKSCDNPYIPNGDYSPLRIKHRTGDEITYQCRNGFYPATRGNTAKCTSTGWIPAPRCTLKPCDYPDIKHGGLYHENMRRPYFPVAVGKYYSYYCDEHFETPSGSYWDHIHCTQDGWSPAVPCLRKCYFPYLENGYNQNYGRKFVQGKSIDVACHPGYALPKAQTTVTCMENGWSPTPRCIRVKTCSKSSIDIENGFISESQYTYALKEKAKYQCKLGYVTADGETSGSITCGKDGWSAQPTCIKSCDIPVFMNARTKNDFTWFKLNDTLDYECHDGYESNTGSTTGSIVCGYNGWSDLPICYERECELPKIDVHLVPDRKKDQYKVGEVLKFSCKPGFTIVGPNSVQCYHFGLSPDLPICKEQVQSCGPPPELLNGNVKEKTKEEYGHSEVVEYYCNPRFLMKGPNKIQCVDGEWTTLPVCIVEESTCGDIPELEHGWAQLSSPPYYYGDSVEFNCSESFTMIGHRSITCIHGVWTQLPQCVAIDKLKKCKSSNLIILEEHLKNKKEFDHNSNIRYRCRGKEGWIHTVCINGRWDPEVNCSMAQIQLCPPPPQIPNSHNMTTTLNYRDGEKVSVLCQENYLIQEGEEITCKDGRWQSIPLCVEKIPCSQPPQIEHGTINSSRSSQESYAHGTKLSYTCEGGFRISEENETTCYMGKWSSPPQCEGLPCKSPPEISHGVVAHMSDSYQYGEEVTYKCFEGFGIDGPAIAKCLGEKWSHPPSCIKTDCLSLPSFENAIPMGEKKDVYKAGEQVTYTCATYYKMDGASNVTCINSRWTGRPTCRDTSCVNPPTVQNAYIVSRQMSKYPSGERVRYQCRSPYEMFGDEEVMCLNGNWTEPPQCKDSTGKCGPPPPIDNGDITSFPLSVYAPASSVEYQCQNLYQLEGNKRITCRNGQWSEPPKCLHPCVISREIMENYNIALRWTAKQKLYSRTGESVEFVCKRGYRLSSRSHTLRTTCWDGKLEYPTCAKR
- luciferase reporter activity of transduced MDCK cells, 40 µg/ml protein [1]: 50 % increase
- luciferase reporter activity of transduced MDCK cells, 40 µg/ml protein [2]: 25 % reduction
